Laboratory results published in publication PMC10681739, “High-throughput data and modeling reveal insights into the mechanisms of cooperative DNA-binding by transcription factor proteins”.

T1: ETS1 (Homo sapiens, UniProt P14921)
T1 sequence: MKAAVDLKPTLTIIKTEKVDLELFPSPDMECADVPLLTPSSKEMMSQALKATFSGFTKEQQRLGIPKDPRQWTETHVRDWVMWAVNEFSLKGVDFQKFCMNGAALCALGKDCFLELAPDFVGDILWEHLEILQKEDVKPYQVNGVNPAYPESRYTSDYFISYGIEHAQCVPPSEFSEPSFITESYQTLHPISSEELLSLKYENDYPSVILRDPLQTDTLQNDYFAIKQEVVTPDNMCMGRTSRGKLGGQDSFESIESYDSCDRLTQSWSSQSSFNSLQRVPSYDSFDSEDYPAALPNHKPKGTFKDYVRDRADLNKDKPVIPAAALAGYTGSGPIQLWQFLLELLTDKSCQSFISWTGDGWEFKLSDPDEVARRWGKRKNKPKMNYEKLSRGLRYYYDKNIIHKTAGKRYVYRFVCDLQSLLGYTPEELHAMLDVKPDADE

B1: Table S2 C row 56 (dsDNA)
DNA 1: TGTCTATCGATTAAAACCACTGGTAAGAGCCATTGA
DNA 2: TCAATGGCTCTTACCAGTGGTTTTAATCGATAGACA
B2: Table S2 C row 189 (dsDNA)
DNA 1: CCCTGGGGTCCCTTTGCCGCAGTTCCACATCTGCAG
DNA 2: CTGCAGATGTGGAACTGCGGCAAAGGGACCCCAGGG
B3: Table S2 B row 1920 (dsDNA)
DNA 1: ACATTCTTCCGGTTGGACCTCCGCGATCAGCGCTGT
DNA 2: ACAGCGCTGATCGCGGAGGTCCAACCGGAAGAATGT
B4: Table S2 C row 104 (dsDNA)
DNA 1: TCTCCCAGCGTCTGATGTGGCTTCGGTGTCAGACAT
DNA 2: ATGTCTGACACCGAAGCCACATCAGACGCTGGGAGA
B5: Table S2 C row 114 (dsDNA)
DNA 1: CTCTTCCATGCAGGCTGTGGTTGCCTTCAAATACCG
DNA 2: CGGTATTTGAAGGCAACCACAGCCTGCATGGAAGAG
B6: Table S2 C row 9 (dsDNA)
DNA 1: CATGTGAGCGACTGGGCCGCAGCCATCAGCCTCCTG
DNA 2: CAGGAGGCTGATGGCTGCGGCCCAGTCGCTCACATG
B7: Table S2 C row 18 (dsDNA)
DNA 1: ACCCTCGAAGCTCTAACCACTGTGGGCTATTTTTGC
DNA 2: GCAAAAATAGCCCACAGTGGTTAGAGCTTCGAGGGT
B8: Table S2 C row 193 (dsDNA)
DNA 1: GCTCCTAGATGGCTCTGTGGGCAGGTGCTGGCCAAG
DNA 2: CTTGGCCAGCACCTGCCCACAGAGCCATCTAGGAGC
B9: Table S2 C row 190 (dsDNA)
DNA 1: TAAGAGAAAGCGCAAACCGCACAAGACCAGTTCAAA
DNA 2: TTTGAACTGGTCTTGTGCGGTTTGCGCTTTCTCTTA
B10: Table S2 C row 17 (dsDNA)
DNA 1: GGGGTGTACACTAGCTGCGGTCTGATTTAGCCCTTT
DNA 2: AAAGGGCTAAATCAGACCGCAGCTAGTGTACACCCC
B11: Table S2 B row 1682 (dsDNA)
DNA 1: CTTGTTCTATTTCCTGTTTGTGCTGAGTGACTGTCT
DNA 2: AGACAGTCACTCAGCACAAACAGGAAATAGAACAAG
B12: Table S2 C row 37 (dsDNA)
DNA 1: CTGGTGCAGAAAAAAACCACACAAGCCATTGGGTAG
DNA 2: CTACCCAATGGCTTGTGTGGTTTTTTTCTGCACCAG
B13: Table S2 C row 90 (dsDNA)
DNA 1: ACTGAAAATCTGCCTTGTGGCTGCTTCTGGTACACA
DNA 2: TGTGTACCAGAAGCAGCCACAAGGCAGATTTTCAGT
B14: Table S2 C row 59 (dsDNA)
DNA 1: CAGACAGTAACAAATGGTGGTTGCCGTCATGTGAAG
DNA 2: CTTCACATGACGGCAACCACCATTTGTTACTGTCTG
B15: Table S2 C row 132 (dsDNA)
DNA 1: GGCCTGATAGCAATGGCCACAAACACAGCAAGCCAC
DNA 2: GTGGCTTGCTGTGTTTGTGGCCATTGCTATCAGGCC
B16: Table S2 C row 21 (dsDNA)
DNA 1: TTGCAGAGTTAGCTAGCCACAGGCAAGTCTCCATTG
DNA 2: CAATGGAGACTTGCCTGTGGCTAGCTAACTCTGCAA
B17: Table S2 C row 7 (dsDNA)
DNA 1: AAATAGCGCAGGTCAACCACAGACCCCAGCACTGCA
DNA 2: TGCAGTGCTGGGGTCTGTGGTTGACCTGCGCTATTT
B18: Table S2 C row 11 (dsDNA)
DNA 1: AGGTCCTCTGCATTCTGTGGTCACAAACCCAGAGCC
DNA 2: GGCTCTGGGTTTGTGACCACAGAATGCAGAGGACCT
B19: Table S2 C row 83 (dsDNA)
DNA 1: AGAACTTAAGATCTCTGTGGCTTGTGTGTGTGTGTA
DNA 2: TACACACACACACAAGCCACAGAGATCTTAAGTTCT
B20: Table S2 C row 24 (dsDNA)
DNA 1: GACGGGCGCGCGGCTTGCGGGCGGCGGGGCGCTGGG
DNA 2: CCCAGCGCCCCGCCGCCCGCAAGCCGCGCGCCCGTC
B21: Table S2 C row 5 (dsDNA)
DNA 1: TAGTGTGAATCCCCGCCCACAGAGGGGCGGCACGTT
DNA 2: AACGTGCCGCCCCTCTGTGGGCGGGGATTCACACTA
B22: Table S2 B row 649 (dsDNA)
DNA 1: TTATTTCCGGTGTTGATCTTTTTATTGGTACCAGGC
DNA 2: GCCTGGTACCAATAAAAAGATCAACACCGGAAATAA
B23: Table S2 C row 147 (dsDNA)
DNA 1: GGCCTCTGAGGAGCAGCCGCAGGAGGAGGAGGAGGT
DNA 2: ACCTCCTCCTCCTCCTGCGGCTGCTCCTCAGAGGCC
B24: Table S2 C row 65 (dsDNA)
DNA 1: GTCAGCTATAGTGACACCACAAGGCCTGAAGAGGGC
DNA 2: GCCCTCTTCAGGCCTTGTGGTGTCACTATAGCTGAC
B25: Table S2 C row 171 (dsDNA)
DNA 1: GACTGGTGGATCACTTGAGGTCAGTTTGAGACCAGC
DNA 2: GCTGGTCTCAAACTGACCTCAAGTGATCCACCAGTC
B26: Table S2 C row 102 (dsDNA)
DNA 1: GGTCAGGAGGGATGAACCACCGCTTACTCGTTCTTC
DNA 2: GAAGAACGAGTAAGCGGTGGTTCATCCCTCCTGACC
B27: Table S2 B row 2515 (dsDNA)
DNA 1: CGGTGGCTTCCGGCCCATGGCGCTGGTTGGTGACTC
DNA 2: GAGTCACCAACCAGCGCCATGGGCCGGAAGCCACCG
B28: Table S2 C row 79 (dsDNA)
DNA 1: CCCATCAGCAGAAAAACCACAGCAAGCTTAATGTGC
DNA 2: GCACATTAAGCTTGCTGTGGTTTTTCTGCTGATGGG
B29: Table S2 C row 144 (dsDNA)
DNA 1: ACCGTCAATCTCGACACCGCGGAGCACAATGCGTGC
DNA 2: GCACGCATTGTGCTCCGCGGTGTCGAGATTGACGGT
B30: Table S2 C row 109 (dsDNA)
DNA 1: CAAGCCCAAGAACGCTGTGGTTTTTGCAGACTCATA
DNA 2: TATGAGTCTGCAAAAACCACAGCGTTCTTGGGCTTG
B31: Table S2 C row 40 (dsDNA)
DNA 1: CTTCACGGCTAGTTCTGTGGGTGTCCCACTTAGTTT
DNA 2: AAACTAAGTGGGACACCCACAGAACTAGCCGTGAAG
B32: Table S2 C row 127 (dsDNA)
DNA 1: CCGCCCTCGGTCCCCACCGCGGAGGACTCTCTCAAG
DNA 2: CTTGAGAGAGTCCTCCGCGGTGGGGACCGAGGGCGG
B33: Table S2 C row 71 (dsDNA)
DNA 1: CTGGGTTGGATGACCTGCGGTGGAACAGATGGCTCC
DNA 2: GGAGCCATCTGTTCCACCGCAGGTCATCCAACCCAG
B34: Table S2 C row 142 (dsDNA)
DNA 1: CCTAAGAGTAAGCTAACCACAGGGATTCTTTTGTAG
DNA 2: CTACAAAAGAATCCCTGTGGTTAGCTTACTCTTAGG
B35: Table S2 C row 145 (dsDNA)
DNA 1: TGTGGCTGCCCTCAGACCACAAACCACCAGCCCTAT
DNA 2: ATAGGGCTGGTGGTTTGTGGTCTGAGGGCAGCCACA
B36: Table S2 C row 164 (dsDNA)
DNA 1: GAGCGGAGACAGAACACCGCACACCCAGCGTCCCAA
DNA 2: TTGGGACGCTGGGTGTGCGGTGTTCTGTCTCCGCTC
B37: Table S2 C row 70 (dsDNA)
DNA 1: AAAGTCATTTAAGTGACCACACTTTATAGGCTTGCC
DNA 2: GGCAAGCCTATAAAGTGTGGTCACTTAAATGACTTT
B38: Table S2 C row 86 (dsDNA)
DNA 1: CGTCACTTCTGGAGCTGCGGTCGGGATCTGGGAGGA
DNA 2: TCCTCCCAGATCCCGACCGCAGCTCCAGAAGTGACG
B39: Table S2 C row 178 (dsDNA)
DNA 1: GGCTGACTCTGTATCTGTGGGTGCTTCAGGGCCAAC
DNA 2: GTTGGCCCTGAAGCACCCACAGATACAGAGTCAGCC
B40: Table S2 B row 3812 (dsDNA)
DNA 1: GAGTCGCTTCCGCTCCCGCCCCGCTCTCTGGCGTAG
DNA 2: CTACGCCAGAGAGCGGGGCGGGAGCGGAAGCGACTC
B41: Table S2 C row 188 (dsDNA)
DNA 1: GGAGATAGCCTAGGCTGTGGTTTTTCAGAGAAACCT
DNA 2: AGGTTTCTCTGAAAAACCACAGCCTAGGCTATCTCC
B42: Table S2 C row 110 (dsDNA)
DNA 1: GGATTCAACATTCCTTGTGGGCTGCTGGCCCCAGAC
DNA 2: GTCTGGGGCCAGCAGCCCACAAGGAATGTTGAATCC

Molecular target: T1, ETS1
Assay: gcPBM; 1 nM ETS1
Settings: tags: N-terminal GST (pDEST15), kept (PMC6008103); label: surface-attached array probe

Row | Binder | binding signal
1 | B1 | 359 PBM fluorescence, median of replicate spots
2 | B2 | 346 PBM fluorescence, median of replicate spots
3 | B3 | 16500 PBM fluorescence, median of replicate spots
4 | B4 | 352 PBM fluorescence, median of replicate spots
5 | B5 | 357 PBM fluorescence, median of replicate spots
6 | B6 | 350 PBM fluorescence, median of replicate spots
7 | B7 | 356 PBM fluorescence, median of replicate spots
8 | B8 | 347 PBM fluorescence, median of replicate spots
9 | B9 | 359 PBM fluorescence, median of replicate spots
10 | B10 | 351 PBM fluorescence, median of replicate spots
11 | B11 | 15900 PBM fluorescence, median of replicate spots
12 | B12 | 369 PBM fluorescence, median of replicate spots
13 | B13 | 355 PBM fluorescence, median of replicate spots
14 | B14 | 367 PBM fluorescence, median of replicate spots
15 | B15 | 348 PBM fluorescence, median of replicate spots
16 | B16 | 364 PBM fluorescence, median of replicate spots
17 | B17 | 355 PBM fluorescence, median of replicate spots
18 | B18 | 347 PBM fluorescence, median of replicate spots
19 | B19 | 361 PBM fluorescence, median of replicate spots
20 | B20 | 371 PBM fluorescence, median of replicate spots
21 | B21 | 372 PBM fluorescence, median of replicate spots

Row | Binder | binding signal
22 | B22 | 43000 PBM fluorescence, median of replicate spots
23 | B23 | 353 PBM fluorescence, median of replicate spots
24 | B24 | 370 PBM fluorescence, median of replicate spots
25 | B25 | 359 PBM fluorescence, median of replicate spots
26 | B26 | 362 PBM fluorescence, median of replicate spots
27 | B27 | 14700 PBM fluorescence, median of replicate spots
28 | B28 | 369 PBM fluorescence, median of replicate spots
29 | B29 | 352 PBM fluorescence, median of replicate spots
30 | B30 | 353 PBM fluorescence, median of replicate spots
31 | B31 | 366 PBM fluorescence, median of replicate spots
32 | B32 | 352 PBM fluorescence, median of replicate spots
33 | B33 | 374 PBM fluorescence, median of replicate spots
34 | B34 | 351 PBM fluorescence, median of replicate spots
35 | B35 | 352 PBM fluorescence, median of replicate spots
36 | B36 | 352 PBM fluorescence, median of replicate spots
37 | B37 | 361 PBM fluorescence, median of replicate spots
38 | B38 | 360 PBM fluorescence, median of replicate spots
39 | B39 | 371 PBM fluorescence, median of replicate spots
40 | B40 | 15300 PBM fluorescence, median of replicate spots
41 | B41 | 350 PBM fluorescence, median of replicate spots
42 | B42 | 359 PBM fluorescence, median of replicate spots
